# Results taken from patent US20260116991A1 (HAINAN SIMCERE ZAIMING PHARMACEUTICAL, published 2026).
# Experiments:
# [1] = target: T1, monkey GPC3-His protein (monkey); assay: SPR, antibody captured on Protein A chip, monkey GPC3-His analyte;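 note: run at 25 °C with 240 s association and up to 600 s dissociation, double-referenced, kinetics fitted to a 1:1 Langmuir binding model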
# T1 construct: Bought recombinant protein; also called monkey GPC3 protein
# [2] = target: T1, monkey GPC3-His protein; assay: ELISA, monkey GPC3-His coated;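 note: Plate-coated antigen at 1 µg/mL, antibody binding 2 h at 37 °C, detected with HRP-labeled secondary antibody and TMB, absorbance at 450 nm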
# Method: The specific method is described as follows: The antigen protein was diluted with PBS to a final concentration of 1 μg/mL, and the diluent was added to a 96-well ELISA plate at 50 μL/well. The plate was sealed with a plastic film and incubated at 4° C. overnight, washed twice with PBS the next day, and a blocking solution [PBS+2% (w/w) BSA] was added for blocking at room temperature for 2 h. […] After incubation at 37° C. for 2 h, the plate was washed 3 times with PBS. A horseradish peroxidase (HRP)-labeled secondary antibody (purchased from Merck, Cat. No. AP113P) was added for incubation at 37° C. for 1 h, and the plate was washed 5 times with PBS. A TMB substrate was added at 50 μL/well for incubation at room temperature for 10 min, then a stop solution (1.0M HCl) was added at 50 μL/well. An ELISA plate reader (Multimode Plate Reader, EnSight, purchased from Perkin Elmer) was used to read OD_{450 nm} values, with results as shown in Table 4 to Table 6, FIG. 1A, FIG. 1B, and FIG. 1C.
# [3] = target: T2, human GPC3-His protein (human, UniProt P51654 25-559); assay: SPR, antibody captured on Protein A chip, human GPC3-His analyte;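 note: measured at 25 °C flow cell, human GPC3-His injected at five concentrations up to 200 nM, 240 s association, up to 600 s dissociation, double-referenced, fitted to Langmuir 1:1 model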
# T2 construct: also called human GPC3 protein; not shown: His tag
# [4] = target: biotinylated labeled human GPC3 protein (produced in-house) (human, UniProt P51654 25-559, limits assumed, biotinylated (Dojindo, Cat. No. LK03); sites not stated); assay: ELISA, biotinylated human GPC3 protein
# [5] = target: T3, human GPC3 on CHO-K1-human GPC3 cells (CHOK1-hGPC3.2B5) (human, UniProt P51654 25-554); assay: FACS, CHOK1-hGPC3.2B5 cells;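 note: flow cytometry of humanized antibodies binding to the cells over one hour in the cold, read as cell mean fluorescence intensity, with EC50 obtained by curve fitting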
# T3 construct: whole, on cells
# Method: The desired cells were expanded to a logarithmic growth phase in a T-75 cell culture flask, the medium was removed by pipetting, and the cells were washed twice with a PBS buffer, and digested with trypsin. Then a complete medium was added to stop the digestion, and the cells were blown into a single cell suspension. After counting, the cells were centrifuged, and the cell pellet was resuspended with an FACS buffer (PBS+2% fetal bovine serum) to 2×10⁶ cells/mL. The cell resuspension solution was added to a 96-well FACS reaction plate at 50 μl/well, and a humanized antibody sample to be tested was added at 50 μl/well for incubation at 4° C. for 1 h. […] After the plate was centrifuged and washed 3 times with a PBS buffer, 100 μl of the resulting solution was assayed and analyzed by FACS (FACS Canto™, purchased from BD Biosciences). Data analysis was performed by software (FlowJo) to obtain the mean fluorescence intensity (MFI) of the cells. Then, analysis was performed by software (GraphPad Prism8), data were fitted, and EC₅₀ values were calculated.
Binder,Kd [1],koff [1],kon [1],OD450 at 0.0001 nM [2],OD450 at 0.001 nM [2],OD450 at 0.01 nM [2],OD450 at 0.1 nM [2],OD450 at 1 nM [2],OD450 at 10 nM [2],OD450 at 100 nM [2],OD450 at 0.0008 nM [4],OD450 at 0.004 nM [4],OD450 at 0.02 nM [4],OD450 at 0.11 nM [4],OD450 at 0.53 nM [4],OD450 at 2.67 nM [4],OD450 at 13.33 nM [4],OD450 at 66.66 nM [4],EC50 [5],Max MFI [5],also measured
"F1.62.9 (antibody, human IgG1, kappa, V domains shown, Human-murine chimeric antibody) VH: QVQLQQSDAELVKPGASVKISCKVSGYIFTDHTIHWMKQRPEQGLEWIGYIYPRDGSIKYNENFKGKATLTADKSSSATYMQLNSLTSEDSAVYFCARPIYYDYAYYFDYWGQGTTLTVSS VL: DVVMTQSPLSLPVSLGDQASISCRSRQSLVHSNGNTYLHWYLQKPGQSPKVLIYKVSNRFSGVPDRFSGSGSGTDFTLKISRVEAEDLGVYFCSQSTHVPYTFGGGTKLEIKR",44 nM,0.00156 s⁻¹,35500 M⁻¹ s⁻¹,0.21 OD450,0.36 OD450,0.39 OD450,0.56 OD450,0.64 OD450,0.66 OD450,1.06 OD450,,,,,,,,,,,Kd [3]: 46 nM; koff [3]: 0.00129 s⁻¹; kon [3]: 28000 M⁻¹ s⁻¹
"F1.153.1 (antibody, human IgG1, kappa, V domains shown, Human-murine chimeric antibody) VH: QIQLVQSGPELKKPGETVKISCKASGYTFTTAGMQWVQKMPGKGFKWIGWINTHSGEPQYAEDFKGRFAFSLETSASTAYLQISNLKNEDTATYFCARSFYYHGSSFFYFDYWGQGTTLTVSS VL: DIVMTQSQKFMSTTVGDRVSITCKASQNVGTAVAWYQQKPGQSPKLLIYSASNRYTGVPDRFTGSGSGADFTLTISNMQSEDLADYFCQQYSRYPLTFGAGTKLELKR",0.414 nM,4.27e-05 s⁻¹,103000 M⁻¹ s⁻¹,0.27 OD450,0.36 OD450,0.49 OD450,1.06 OD450,1.61 OD450,1.98 OD450,2 OD450,,,,,,,,,,,Kd [3]: 0.92 nM; koff [3]: 6.22e-05 s⁻¹; kon [3]: 67600 M⁻¹ s⁻¹
"hAb005LH1L1 (antibody, human IgG1, V domains shown, Humanized F3.54.12; VH H1 + VL L1; expressed as human IgG1) VH: EVQLVQSGAEVKKPGASVKVSCKASGYTFTDYEMHWVRQAPGQGLEWMGAIDPETGNTAYIQKFKGRVTMTTDKSTSTAYMELRSLRSDDTAVYYCTRFYSYSHWGQGTTVTVSS VL: DIVMTQTPLSLPVTPGEPASISCRSSQSLVHSNGNTYLHWYLQKPGQSPQLLIYKVSNRFSGVPDRFSGSGSGTDFTLKISRVEAEDVGVYYCSQNTHVPPTFGGGTKVEIK",,,,,,,,,,,0.078 OD450,0.202 OD450,0.442 OD450,0.84 OD450,1.1 OD450,1.17 OD450,1.1 OD450,1.17 OD450,0.563 nM,4500 MFI,
"hAb005LH3L1 (antibody, human IgG1, V domains shown, Humanized F3.54.12; VH H3 + VL L1; expressed as human IgG1) VH: EVQLVQSGAEVKKPGASVKVSCKASGYTFTDYEMHWVRQAPGQGLEWIGAIDPETGNTAYIQKFKGRATLTTDKSTSTAYMELRSLRSDDTAVYYCTRFYSYSHWGQGTTVTVSS VL: DIVMTQTPLSLPVTPGEPASISCRSSQSLVHSNGNTYLHWYLQKPGQSPQLLIYKVSNRFSGVPDRFSGSGSGTDFTLKISRVEAEDVGVYYCSQNTHVPPTFGGGTKVEIK",,,,,,,,,,,0.079 OD450,0.162 OD450,0.441 OD450,0.715 OD450,0.923 OD450,1.1 OD450,1.07 OD450,1.12 OD450,0.734 nM,4700 MFI,
"hAb005LH3L1b (antibody, human IgG1, V domains shown, Humanized F3.54.12; VH H3 + VL L1b; expressed as human IgG1) VH: EVQLVQSGAEVKKPGASVKVSCKASGYTFTDYEMHWVRQAPGQGLEWIGAIDPETGNTAYIQKFKGRATLTTDKSTSTAYMELRSLRSDDTAVYYCTRFYSYSHWGQGTTVTVSS VL: DIVMTQTPLSLPVTPGEPASISCRSSQSLVHSNRNTYLHWYLQKPGQSPQLLIYKVSNRFSGVPDRFSGSGSGTDFTLKISRVEAEDVGVYYCSQNTHVPPTFGGGTKVEIK",,,,,,,,,,,0.074 OD450,0.169 OD450,0.426 OD450,0.838 OD450,0.952 OD450,1.1 OD450,1.03 OD450,1.04 OD450,0.558 nM,4740 MFI,
"hAb005LH3L1a (antibody, human IgG1, V domains shown, Humanized F3.54.12; VH H3 + VL L1a; expressed as human IgG1) VH: EVQLVQSGAEVKKPGASVKVSCKASGYTFTDYEMHWVRQAPGQGLEWIGAIDPETGNTAYIQKFKGRATLTTDKSTSTAYMELRSLRSDDTAVYYCTRFYSYSHWGQGTTVTVSS VL: DIVMTQTPLSLPVTPGEPASISCRSSQSLVHSDGNTYLHWYLQKPGQSPQLLIYKVSNRFSGVPDRFSGSGSGTDFTLKISRVEAEDVGVYYCSQNTHVPPTFGGGTKVEIK",,,,,,,,,,,0.047 OD450,0.049 OD450,0.049 OD450,0.05 OD450,0.058 OD450,0.101 OD450,0.153 OD450,0.402 OD450,133 nM,136 MFI,
